Results on seven molecules are retold here after patent US11274126B2, “pH-sensitive cyclic peptides” (University of Rhode Island Board of Trustees, priority 2016, dated 2022).

The test system of data set [1] is HeLa cells. The conditions noted are these: at the concentrations used, treatment of 2-4 h; previous report; cited from earlier work.
The test system of a further data set is 4T1 breast tumors. In words: Ex vivo fluorescence imaging of tumor and organs after IV Alexa546-peptides. The data set is classed as in vivo, mice. The conditions noted are these: after IV administration. The procedure:
4T1 breast tumors were established by subcutaneous injection of 4T1 cells (8×10^5 cells/0.1 mL/flank) in the right flank of adult female BALB/c mice (about 19-22 g weight) obtained from Harlan Laboratories. When tumors reached about 6 mm in diameter single tail vein injections of 100 μl of 40 μM Alexa546-peptides were performed. […] At 4 h post-injection euthanization and necropsy was performed followed by ex vivo imaging of tumor, kidneys, liver, lungs and muscle. Mean fluorescence intensity of tumor and organs was calculated using Kodak software.

Data set [2] relates to HeLa cells. In words: Fluorescent microscopy with Trypan Blue quenching. The data set is classed as cell-based, Human. As to conditions: 5 μM, 30 min at pH 6.2 versus 7.4. The procedure:
HeLa cells (8,000 cells per dish) were seeded in the center of a 35-mm dish with a 10-mm glass-bottom window coated with collagen (MatTek Corp). Next day cells were incubated with 5 μM of FITC-labeled c[E4W5C] (SEQ ID NO: 5) peptide for 30 min in DMEM medium without FBS at pH 7.4 or 6.2. Cells were washed 5 times at pH 7.4 and 0.4% Trypan Blue was added for 5 min ( 1/10 of the total volume). Fluorescent images were acquired with a Retiga CCD camera (Qimaging) mounted to an inverted Olympus IX71 microscope (Olympus America, Inc.).

Data set [3] can be described thus: Steady-state tryptophan fluorescence of peptides in buffer and with POPC liposomes. The data set is classed as physicochemical. As to conditions: for S, normalized area under the spectra, Pep-PC, pH3: POPC liposomes pH 3; for S, normalized area under the spectra, Pep-PC, pH3 / S, normalized area under the spectra, Pep-PC, pH8: normalized to peptide at pH 8 without POPC; for S, normalized area under the spectra, Pep-PC, pH8: POPC liposomes pH 8; for λmax, Pep-PC, pH3: in the presence of POPC liposomes at pH 3; for λmax, Pep-PC, pH3 / λmax, Pep-PC, pH8 / λmax, maximum position of the fluorescence spectrum, Pep, pH8: excitation 280 nm; for λmax, Pep-PC, pH8: in the presence of POPC liposomes at pH 8; for λmax, maximum position of the fluorescence spectrum, Pep, pH8: peptide in phosphate buffer pH 8, no liposomes. On the procedure:
Liposomes such as Large Unilamellar Vesicles (LUVs) were prepared by extrusion. POPC, 1-palmitoyl-2-oleoyl-sn-glycero-3-phosphocholine (Avanti Polar Lipids), or a mixture of POPC with 0.5% of 18:1 NBD-PE, 1,2-dioleoyl-sn-glycero-3-phosphoethanolamine-N-7-nitro-2-1,3-benzoxadiazol-4-yl ammonium salt (Avanti Polar Lipids) were dissolved in chloroform, desolvated on a rotary evaporator, and dried under high vacuum for several hours. The phospholipid film was then rehydrated in 10 mM phosphate buffer pH 8.0, vortexed until the lipid bilayer was completely dissolved, and repeatedly (15-21 times) extruded through the membranes with 50 nm pore sizes to obtain LUVs.
Freshly prepared peptides and POPC vesicles were mixed to have 5 μM of a peptide and 1.25 mM of lipids in the final solution. Steady-state fluorescence measurements were carried out on a PC1 spectrofluorometer (ISS, Inc.) under temperature control at 25° C. Tryptophan fluorescence was excited at 280 nm (there is no Phe or Tyr in the peptides) and recorded with the excitation and emission slits set at 1 nm. The polarizers in the excitation and emission paths were set at the “magic” angle (54.7o from the vertical orientation) and vertically (0°), respectively. Steady state CD measurements were carried out in MOS 450 spectropolarimeter (Bio-Logic, Inc.) with the same concentrations of peptide and lipids as it were used in fluorescence measurements.

A short description of data set [4]: Dual quenching (acrylamide / 10-DN). The format is physicochemical. As to conditions: POPC liposomes; for percentage of fluorescence quenching, Pep-PC + 10-DN pH3 / percentage of fluorescence quenching, Pep-PC + AC pH3: pH 3; for percentage of fluorescence quenching, Pep-PC + 10-DN pH8 / percentage of fluorescence quenching, Pep-PC + AC pH8: pH 8; for percentage of fluorescence quenching, Pep-PC + AC pH3 / percentage of fluorescence quenching, Pep-PC + AC pH8: acrylamide. On the procedure:
POPC liposomes without and with 10% of the lipids replaced by 10-doxylnonadecane (10-DN) (Avanti Polar Lipids) were prepared in 10 mM citrate-phosphate buffer pH 8.0. Peptides and POPC liposomes were mixed to generate final concentrations of 7 μM peptide and 2.1 mM POPC without and with 10-DN. […] To the samples of POPC liposomes containing no 10-DN, acrylamide (Sigma-Aldrich) was added to have a final concentration of 235 mM in solution. Concentration of peptides in all samples was kept constant. To observe quenching of tryptophan fluorescence by 10-DN or acrylamide, the tryptophan fluorescence was recorded as described above. The appropriate POPC blanks were measured and subtracted from the measured spectra before analysis. The percentage of quenching was calculated.
To establish localization of the peptides within a lipid bilayer of the membrane, a dual quenching assay (Caputo G A & London E (2003) Biochemistry 42(11):3265-3274) was used (FIG. 6 and Table 8). Effective quenching of fluorescence by acrylamide would occur only for tryptophan residues exposed to polar parts of outer or inner leaflets of the bilayer. At the same time, tryptophan residues located in the middle of a membrane would be effectively quenched by 10-DN. The result of the dual quenching assay allows the determination of whether tryptophan residues are located in the middle of a membrane or close to the polar headgroups of the bilayer. […] Therefore, FRET assays were also performed (McIntyre J C & Sleight R G (1991) Biochemistry 30(51):11819-11827; Clausell et al. (2006) J Phys Chem B 110(9):4465-4471) (FIG. 7). First, POPC liposomes symmetrically-labeled with NBD dye were prepared. Then, membrane-impermeable dithionite was used to modify chemically and quench the fluorescence of NBD at the outer leaflet of the bilayer followed by removal of dithionite by gel filtration. As a result, asymmetrically-labeled liposomes with NBD only at the inner leaflet were obtained. The c[E4W5C] […] All other peptides are located at the outer leaflet of the bilayer at pH 8. Among c[(WE)4WC] (SEQ ID NO: 2), c[(WE)5WC] (SEQ ID NO: 3), and c[(WE)3WC] (SEQ ID NO: 1) peptides, the peptide with smallest cycle, c[(WE)3WC]

In data set [5] the test system is HeLa cells. The format is cell-based, Human. The conditions noted are these: up to 4 μM, 3 h at pH 7.4 or 6.0, viability at 48 h. The procedure: HeLa cells were loaded in the wells of 96-well plates (5,000 cells per well) and incubated overnight. Growth medium was replaced with the medium without FBS pH 6.0 or pH 7.4 containing increasing amounts of peptide-amanitin construct (0.5, 1, 2, and 4 μM). The construct was removed after 3 h. After 48 h of incubation in standard growth medium, a colorimetric reagent (CellTiter 96 AQueous One Solution Assay, Promega) was added for 1 h followed by measuring absorbance at 490 nm to assess cell viability. All samples were prepared in triplicate.

Take `CC[C@H](C)[C@@H]1NC(=O)CNC(=O)[C@@H]2Cc3c([nH]c4cc(O)ccc34)[S+]([O-])C[C@@H](NC(=O)CNC1=O)C(=O)N[C@@H](CC(N)=O)C(=O)N1C[C@H](O)C[C@H]1C(=O)N[C@@H]([C@@H](C)[C@@H](O)CO)C(=O)N2` (stereo partly drawn) [amanitin, alpha-amanitin]: the “cell death by amanitin alone” value with HeLa cells [1] is given as “does not induce cell death”.
As for `N=C(N)NCCC[C@@H]1NC(=O)[C@H](CS)NC(=O)[C@H](Cc2c[nH]c3ccccc23)NC(=O)[C@H](Cc2c[nH]c3ccccc23)NC(=O)[C@H](Cc2c[nH]c3ccccc23)NC(=O)[C@H](Cc2c[nH]c3ccccc23)NC(=O)[C@H](Cc2c[nH]c3ccccc23)NC(=O)[C@H](CCCNC(=N)N)NC(=O)[C@H](CCCNC(=N)N)NC(=O)[C@H](CCCNC(=N)N)NC1=O` [c[R4W5C]], the “accumulation in tumor and other organs” value with 4T1 breast tumors is on record as “very minimal”.
Consider “FITC-labeled peptide: c[E4W5C] peptide conjugated with Fluorescein-5-maleimide (cyclo(EEEEWWWWWC); also: conjugated with fluorescein-5-maleimide, site not given here)”, for which, in the data set on HeLa cells [2], the “fluorescent signal of cells after Trypan Blue quenching, low pH compared to normal pH” value is “higher level of the fluorescent signal”.
Regarding c[(WE)3WC] (WEWEWEWC; cyclic), in data set [3], the “S, normalized area under the spectra, Pep-PC, pH3” value (“S, normalized area … pH3” below) was found to be 1.7 ± 0.3; the “S, normalized area under the spectra, Pep-PC, pH8” value (from here on “S, normalized area … pH8”) is reported as 0.9 ± 0.1; the “λmax, Pep-PC, pH3” value is reported as 341.7 ± 0.2 nm; the “λmax, Pep-PC, pH8” value was determined as 349.1 ± 0.7 nm. Further, the “λmax, maximum position of the fluorescence spectrum, Pep, pH8” value (shortened to “λmax, maximum position”) in data set [3] is 351.0 ± 0.2 nm. Further, in data set [4], the “percentage of fluorescence quenching, Pep-PC + 10-DN pH3” value (from here on “percentage … Pep-PC + 10-DN pH3”) came out at 47%; the “percentage of fluorescence quenching, Pep-PC + 10-DN pH8” value (from here on “percentage … Pep-PC + 10-DN pH8”) turned out to be 6%; the “percentage of fluorescence quenching, Pep-PC + AC pH3” value (from here on “percentage … Pep-PC + AC pH3”) is reported as 63%; the “percentage of fluorescence quenching, Pep-PC + AC pH8” value is 83%.
As for c[(WE)5WC] (WEWEWEWEWEWC; cyclic), in data set [3], the “S, normalized area … pH3” value is listed as 2.1 ± 0.3; the “S, normalized area … pH8” value was 1.5 ± 0.3; the “λmax, Pep-PC, pH3” value worked out at 341.2 ± 0.4 nm; the “λmax, Pep-PC, pH8” value is on record as 346.7 ± 1.2 nm. Moreover, in data set [3], the “λmax, maximum position” value is 350.3 ± 0.2 nm. Further, in data set [4], the “percentage … Pep-PC + 10-DN pH3” value is 40%; the “percentage … Pep-PC + 10-DN pH8” value came to 1.3%; the “percentage … Pep-PC + AC pH3” value was determined as 68%.
Turning to “c[E4W5C]-GMBS-amanitin (cyclo(EEEEWWWWWC); also: GMBS-linked amanitin conjugate)”, in the data set with HeLa cells [5], the “cell death / cytotoxic effect of peptide-amanitin construct” value is recorded as “reduced significantly at both pHs”.
Take l(CW(EW)4) (CWEWEWEWEW): in data set [3], the “S, normalized area … pH3” value is on record as 1.6 ± 0.4; the “S, normalized area … pH8” value turned out to be 2.3 ± 0.4; the “λmax, Pep-PC, pH3” value is 339.8 ± 0.6 nm; the “λmax, Pep-PC, pH8” value is on record as 346.6 ± 0.7 nm. For the same molecule, the “λmax, maximum position” value in data set [3] amounted to 353.0 ± 0.7 nm. In data set [4], the “percentage … Pep-PC + 10-DN pH3” value is recorded as 31%; the “percentage … Pep-PC + 10-DN pH8” value is 20%; the “percentage … Pep-PC + AC pH3” value is recorded as 56%; the “percentage of fluorescence quenching, Pep-PC + AC pH8” value is given as 81%.
